B1: PSD2 (parent)
chain: LTHFSRRYCQCNPDDSTSEDGIHT
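Note: lentivirally expressed fusions sorted by FACS into six bins by GFP to DsRed ratio, PSI derived from sequencing read proportions per bin multiplied by bin number.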

Variants of: B1
Assay: protein stability index of a GFP-peptide fusion (GPS, HEK-293T) (PSI 1-6); higher = more stable
Details: c terminus: a fixed tail appended
LTHFSRRYCQCNPDDSTEEDGIHT gave a protein stability index of 3.17.
Work on LTHFSRRYCQCNHDDSTSEDGIHT yielded a protein stability index of 2.76.
Work on LTHFSRRYCQCNADDSTSEDGIHT yielded a protein stability index of 2.83.
Work on LTHFSRRYCQCNFDDSTSEDGIHT yielded a protein stability index of 2.68.
LTHFSRRYCQCNMDDSTSEDGIHT showed a protein stability index of 3.2.
Variant LTHFSRRYCQCNQDDSTSEDGIHT has a protein stability index of 3.06.
For LTHFSRRYCQCNGDDSTSEDGIHT, the protein stability index was 3.91.
With LTHFSRRYCQCNWDDSTSEDGIHT the protein stability index was 1.94.
In the case of LTHFSRRYCQCNPDPSTSEDGIHT, the protein stability index is reported as 2.46.
LTHFSRRYCQCNPDMSTSEDGIHT gave a protein stability index of 3.21.
LTHFSRRYCQCNPDWSTSEDGIHT gave a protein stability index of 2.14.
Variant LTHFSRRYCQCNPDESTSEDGIHT has a protein stability index of 4.1.
LTHFSRRYCQCNPDNSTSEDGIHT showed a protein stability index of 2.41.
For LTHFSRRYCQCNPDVSTSEDGIHT, the protein stability index was 2.47.
With LTHFSRRYCQCNPDFSTSEDGIHT the protein stability index was 3.21.
LTHFSRRYCQCNPDHSTSEDGIHT showed a protein stability index of 2.86.
For LTHFSRRYCQCNPDLSTSEDGIHT, the protein stability index was 2.26.
LTHFSRRYCQCEPDDSTSEDGIHT gave a protein stability index of 4.
LTHFSRRYCQCSPDDSTSEDGIHT showed a protein stability index of 4.01.
Variant LTHFSRRYCQCCPDDSTSEDGIHT has a protein stability index of 2.82.
In the case of LTHFSRRYCQCLPDDSTSEDGIHT, the protein stability index is reported as 2.96.
LTHFSRRYCQCHPDDSTSEDGIHT gave a protein stability index of 3.67.
In the case of LTHFSRRYCQCWPDDSTSEDGIHT, the protein stability index is reported as 3.13.
Work on LTHFSRRYCQCDPDDSTSEDGIHT yielded a protein stability index of 4.66.
In the case of LTHFSRRYCQCTPDDSTSEDGIHT, the protein stability index is reported as 3.69.
With LTHFSRRYCQCRPDDSTSEDGIHT the protein stability index was 3.21.
LTHFSRRYCQCNPDDSTSEDMIHT showed a protein stability index of 2.86.
In the case of LTHFSRRYCQCNPDDSTSEDTIHT, the protein stability index is reported as 4.09.
Work on LTHFSRRYCQCNPDDSTSEDYIHT yielded a protein stability index of 2.68.
Variant LTHFSRRYCQCNPDDSTSEDPIHT has a protein stability index of 3.57.
For LTHFSRRYCQCNPDDSTSEDSIHT, the protein stability index was 3.64.
LTHFSRRYCQCNPDDSTSEDAIHT showed a protein stability index of 3.57.
LTHFSRRYCQCNPDDSTSEDIIHT showed a protein stability index of 2.63.
In the case of LTHFSRRYCQCNPDDSTSEDRIHT, the protein stability index is reported as 2.93.
LTHFSRRYCQCNPDDSTSEDEIHT gave a protein stability index of 4.26.
With LTHFSRRYCQCNPDDSTSEDKIHT the protein stability index was 2.95.
LTHFSRRYCQCNPDDSTSENGIHT gave a protein stability index of 2.5.
LTHFSRRYCQCNPDDSTSEIGIHT showed a protein stability index of 1.97.
For LTHFSRRYCQCNPDDSTSEKGIHT, the protein stability index was 2.74.
In the case of LTHFSRRYCQCNPDDSTSEPGIHT, the protein stability index is reported as 2.35.
In the case of LTHFSRRYCQCNPDDSTSECGIHT, the protein stability index is reported as 3.98.
LTHFSRRYTQCNPDDSTSEDGIHT showed a protein stability index of 4.12.
With LTHFSRRYGQCNPDDSTSEDGIHT the protein stability index was 4.15.
In the case of LTHFSRRYQQCNPDDSTSEDGIHT, the protein stability index is reported as 5.06.
Variant LTHFSRRYEQCNPDDSTSEDGIHT has a protein stability index of 4.16.
With LTHFSRRYLQCNPDDSTSEDGIHT the protein stability index was 3.67.
LTHFSRRYNQCNPDDSTSEDGIHT showed a protein stability index of 4.09.

— the supplement of paper PMC10567573
